Bridges are numbered along the chain shown (N, C = ends). Where no end group is shown, it is not given here. [ ]: non-standard residue; d: D form. Orn = NCCC[C@H](N)C(=O)O
B1: (cyclo 29-32) [Ac-Pro3,D-Pro4,D-Phe11, Glu29, Lys32]-hUcn(3-40) (peptide)
peptide: Ac-P[dP]LSIDLT[dF]HLLRTLLELARTQSQREEAEKNRIIFDSV-NH2
modifications: lactam 27-30
SMILES: CC[C@H](C)[C@H](NC(=O)[C@H](CO)NC(=O)[C@H](CC(C)C)NC(=O)[C@H]1CCCN1C(=O)[C@@H]1CCCN1C(C)=O)C(=O)N[C@@H](CC(=O)O)C(=O)N[C@@H](CC(C)C)C(=O)N[C@H](C(=O)N[C@H](Cc1ccccc1)C(=O)N[C@@H](Cc1c[nH]cn1)C(=O)N[C@@H](CC(C)C)C(=O)N[C@@H](CC(C)C)C(=O)N[C@@H](CCCNC(=N)N)C(=O)N[C@H](C(=O)N[C@@H](CC(C)C)C(=O)N[C@@H](CC(C)C)C(=O)N[C@@H](CCC(=O)O)C(=O)N[C@@H](CC(C)C)C(=O)N[C@@H](C)C(=O)N[C@@H](CCCNC(=N)N)C(=O)N[C@H](C(=O)N[C@@H](CCC(N)=O)C(=O)N[C@@H](CO)C(=O)N[C@@H](CCC(N)=O)C(=O)N[C@@H](CCCNC(=N)N)C(=O)N[C@@H](CCC(=O)O)C(=O)N[C@H]1CCC(=O)NCCCC[C@@H](C(=O)N[C@@H](CC(N)=O)C(=O)N[C@@H](CCCNC(=N)N)C(=O)N[C@H](C(=O)N[C@H](C(=O)N[C@@H](Cc2ccccc2)C(=O)N[C@@H](CC(=O)O)C(=O)N[C@@H](CO)C(=O)N[C@H](C(N)=O)C(C)C)[C@@H](C)CC)[C@@H](C)CC)NC(=O)[C@H](CCC(=O)O)NC(=O)[C@H](C)NC1=O)[C@@H](C)O)[C@@H](C)O)[C@@H](C)O
B2: (cyclo 29-32)[D-Phe11, Glu29, Lys32]-Ucn(11-40) (peptide)
peptide: [dF]HLLRTLLELARTQSQREEAEKNRIIFDSV-NH2
modifications: lactam 19-22; N-terminus assumed
SMILES: CC[C@H](C)[C@H](NC(=O)[C@H](CCCNC(=N)N)NC(=O)[C@H](CC(N)=O)NC(=O)[C@@H]1CCCCNC(=O)CC[C@H](NC(=O)[C@H](CCC(=O)O)NC(=O)[C@H](CCCNC(=N)N)NC(=O)[C@H](CCC(N)=O)NC(=O)[C@H](CO)NC(=O)[C@H](CCC(N)=O)NC(=O)[C@@H](NC(=O)[C@H](CCCNC(=N)N)NC(=O)[C@H](C)NC(=O)[C@H](CC(C)C)NC(=O)[C@H](CCC(=O)O)NC(=O)[C@H](CC(C)C)NC(=O)[C@H](CC(C)C)NC(=O)[C@@H](NC(=O)[C@H](CCCNC(=N)N)NC(=O)[C@H](CC(C)C)NC(=O)[C@H](CC(C)C)NC(=O)[C@H](Cc2c[nH]cn2)NC(=O)[C@H](N)Cc2ccccc2)[C@@H](C)O)[C@@H](C)O)C(=O)N[C@@H](C)C(=O)N[C@@H](CCC(=O)O)C(=O)N1)C(=O)N[C@H](C(=O)N[C@@H](Cc1ccccc1)C(=O)N[C@@H](CC(=O)O)C(=O)N[C@@H](CO)C(=O)N[C@H](C(N)=O)C(C)C)[C@@H](C)CC
B3: (cyclo 29-32) [D-Tyr11, Glu29, Lys32]-Ucn(11-40) (peptide)
peptide: [dY]HLLRTLLELARTQSQREEAEKNRIIFDSV-NH2
modifications: lactam 19-22; N-terminus assumed
SMILES: CC[C@H](C)[C@H](NC(=O)[C@H](CCCNC(=N)N)NC(=O)[C@H](CC(N)=O)NC(=O)[C@@H]1CCCCNC(=O)CC[C@H](NC(=O)[C@H](CCC(=O)O)NC(=O)[C@H](CCCNC(=N)N)NC(=O)[C@H](CCC(N)=O)NC(=O)[C@H](CO)NC(=O)[C@H](CCC(N)=O)NC(=O)[C@@H](NC(=O)[C@H](CCCNC(=N)N)NC(=O)[C@H](C)NC(=O)[C@H](CC(C)C)NC(=O)[C@H](CCC(=O)O)NC(=O)[C@H](CC(C)C)NC(=O)[C@H](CC(C)C)NC(=O)[C@@H](NC(=O)[C@H](CCCNC(=N)N)NC(=O)[C@H](CC(C)C)NC(=O)[C@H](CC(C)C)NC(=O)[C@H](Cc2c[nH]cn2)NC(=O)[C@H](N)Cc2ccc(O)cc2)[C@@H](C)O)[C@@H](C)O)C(=O)N[C@@H](C)C(=O)N[C@@H](CCC(=O)O)C(=O)N1)C(=O)N[C@H](C(=O)N[C@@H](Cc1ccccc1)C(=O)N[C@@H](CC(=O)O)C(=O)N[C@@H](CO)C(=O)N[C@H](C(N)=O)C(C)C)[C@@H](C)CC
B4: (cyclo 29-32) [Ac-Pro3,D-Ser4,D-Phe11, Glu29, Lys32]-hUcn(3-40) (peptide)
peptide: Ac-P[dS]LSIDLT[dF]HLLRTLLELARTQSQREEAEKNRIIFDSV-NH2
modifications: lactam 27-30
SMILES: CC[C@H](C)[C@H](NC(=O)[C@H](CO)NC(=O)[C@H](CC(C)C)NC(=O)[C@@H](CO)NC(=O)[C@@H]1CCCN1C(C)=O)C(=O)N[C@@H](CC(=O)O)C(=O)N[C@@H](CC(C)C)C(=O)N[C@H](C(=O)N[C@H](Cc1ccccc1)C(=O)N[C@@H](Cc1c[nH]cn1)C(=O)N[C@@H](CC(C)C)C(=O)N[C@@H](CC(C)C)C(=O)N[C@@H](CCCNC(=N)N)C(=O)N[C@H](C(=O)N[C@@H](CC(C)C)C(=O)N[C@@H](CC(C)C)C(=O)N[C@@H](CCC(=O)O)C(=O)N[C@@H](CC(C)C)C(=O)N[C@@H](C)C(=O)N[C@@H](CCCNC(=N)N)C(=O)N[C@H](C(=O)N[C@@H](CCC(N)=O)C(=O)N[C@@H](CO)C(=O)N[C@@H](CCC(N)=O)C(=O)N[C@@H](CCCNC(=N)N)C(=O)N[C@@H](CCC(=O)O)C(=O)N[C@H]1CCC(=O)NCCCC[C@@H](C(=O)N[C@@H](CC(N)=O)C(=O)N[C@@H](CCCNC(=N)N)C(=O)N[C@H](C(=O)N[C@H](C(=O)N[C@@H](Cc2ccccc2)C(=O)N[C@@H](CC(=O)O)C(=O)N[C@@H](CO)C(=O)N[C@H](C(N)=O)C(C)C)[C@@H](C)CC)[C@@H](C)CC)NC(=O)[C@H](CCC(=O)O)NC(=O)[C@H](C)NC1=O)[C@@H](C)O)[C@@H](C)O)[C@@H](C)O
B5: (cyclo 29-32) [Ac-Pro3,D-Phe11, Glu29, D-Glu31, Lys32]-hUcn(3-40) (peptide)
peptide: Ac-PSLSIDLT[dF]HLLRTLLELARTQSQREEA[dE]KNRIIFDSV-NH2
modifications: lactam 27-30
SMILES: CC[C@H](C)[C@H](NC(=O)[C@H](CO)NC(=O)[C@H](CC(C)C)NC(=O)[C@H](CO)NC(=O)[C@@H]1CCCN1C(C)=O)C(=O)N[C@@H](CC(=O)O)C(=O)N[C@@H](CC(C)C)C(=O)N[C@H](C(=O)N[C@H](Cc1ccccc1)C(=O)N[C@@H](Cc1c[nH]cn1)C(=O)N[C@@H](CC(C)C)C(=O)N[C@@H](CC(C)C)C(=O)N[C@@H](CCCNC(=N)N)C(=O)N[C@H](C(=O)N[C@@H](CC(C)C)C(=O)N[C@@H](CC(C)C)C(=O)N[C@@H](CCC(=O)O)C(=O)N[C@@H](CC(C)C)C(=O)N[C@@H](C)C(=O)N[C@@H](CCCNC(=N)N)C(=O)N[C@H](C(=O)N[C@@H](CCC(N)=O)C(=O)N[C@@H](CO)C(=O)N[C@@H](CCC(N)=O)C(=O)N[C@@H](CCCNC(=N)N)C(=O)N[C@@H](CCC(=O)O)C(=O)N[C@H]1CCC(=O)NCCCC[C@@H](C(=O)N[C@@H](CC(N)=O)C(=O)N[C@@H](CCCNC(=N)N)C(=O)N[C@H](C(=O)N[C@H](C(=O)N[C@@H](Cc2ccccc2)C(=O)N[C@@H](CC(=O)O)C(=O)N[C@@H](CO)C(=O)N[C@H](C(N)=O)C(C)C)[C@@H](C)CC)[C@@H](C)CC)NC(=O)[C@@H](CCC(=O)O)NC(=O)[C@H](C)NC1=O)[C@@H](C)O)[C@@H](C)O)[C@@H](C)O
B6: (cyclo 29-32) [D-Phe11, Glu29, D-Glu31, Lys32]-Ucn(11-40) (peptide)
peptide: [dF]HLLRTLLELARTQSQREEA[dE]KNRIIFDSV-NH2
modifications: lactam 19-22; N-terminus assumed
SMILES: CC[C@H](C)[C@H](NC(=O)[C@H](CCCNC(=N)N)NC(=O)[C@H](CC(N)=O)NC(=O)[C@@H]1CCCCNC(=O)CC[C@H](NC(=O)[C@H](CCC(=O)O)NC(=O)[C@H](CCCNC(=N)N)NC(=O)[C@H](CCC(N)=O)NC(=O)[C@H](CO)NC(=O)[C@H](CCC(N)=O)NC(=O)[C@@H](NC(=O)[C@H](CCCNC(=N)N)NC(=O)[C@H](C)NC(=O)[C@H](CC(C)C)NC(=O)[C@H](CCC(=O)O)NC(=O)[C@H](CC(C)C)NC(=O)[C@H](CC(C)C)NC(=O)[C@@H](NC(=O)[C@H](CCCNC(=N)N)NC(=O)[C@H](CC(C)C)NC(=O)[C@H](CC(C)C)NC(=O)[C@H](Cc2c[nH]cn2)NC(=O)[C@H](N)Cc2ccccc2)[C@@H](C)O)[C@@H](C)O)C(=O)N[C@@H](C)C(=O)N[C@H](CCC(=O)O)C(=O)N1)C(=O)N[C@H](C(=O)N[C@@H](Cc1ccccc1)C(=O)N[C@@H](CC(=O)O)C(=O)N[C@@H](CO)C(=O)N[C@H](C(N)=O)C(C)C)[C@@H](C)CC

molecular target: CRF receptors on anterior pituitary cells in culture; experiment: cell-based or functional assay; conditions: not given

Molecule | ACTH secretion, anterior pituitary cell cultures, potency relative to r/hCRF [times r/hCRF] | antagonism of ACTH secretion under a challenge dose of ovine CRF, potency relative to the Standard Antagonist (times Standard Antagonist)
B1 | 9.9 | 
B2 |  | 10.3
[dY]DNPSLSIDLTFHLLRTLLELARTQSQRERAEQNRIIFDSV-NH2 [[D-Tyr0]hUcn(1-40)] | 1.23 | 
B3 |  | 4.01
B4 | 5.69 | 
B5 | 6.14 | 
B6 |  | 4.72

system: mammalian mean arterial blood pressure; experiment: in vivo test measuring elevation of mean arterial blood pressure as a result of iv injection; conditions: result in words; indicative of a Ucn antagonist
Text: The peptide, Ucn(11-40), having the amino acid sequence (see SEQ ID NO: 8): […] is synthesized in the manner described in Example I. To evaluate the biological activity of a candidate peptide as a Ucn antagonist (which will be indicative of its effective binding to CRF receptors), the previously mentioned assay from Endocrinology, 91, supra, is run in the presence of a challenge dose of ovine CRF. […] An in vivo test measuring elevation of mean arterial blood pressure as a result of iv injection is also simply and straightforwardly performed.

Molecule | vasoconstrictive activity causing elevation of mean arterial blood pressure
H-[dY]HLLRTLLELARTQSQRERAEQNRIIFDSV-NH2 [[D-Tyr^11]-Ucn(11-40)] | significant mammalian vasoconstrictive activity
H-[dY]HLLRTLLELARTQSQREEA[dE]KNRIIFDSV-NH2 | significant mammalian vasoconstrictive activity
H-Phe-His-Leu-Leu-Arg-Thr-Leu-Leu-Glu-Leu-Ala-Arg-Thr-Gln-Ser-Gln-Arg-Glu-Arg-Ala-Glu-Gln-Asn-Arg-Ile-Ile-Phe-Asp-Ser-Val-NH2 (H-FHLLRTLLELARTQSQRERAEQNRIIFDSV-NH2) [Ucn(11-40)] | significant mammalian vasoconstrictive activity
H-[dF]HLLRTLLELARTQSQREKAEENRIIFDSV-NH2 | significant mammalian vasoconstrictive activity
H-[dF]HLLRTLLELARTQSQREKA[dE]ENRIIFDSV-NH2 | significant mammalian vasoconstrictive activity
H-[dF]HLLRTLLELARTQSQREEA[dR][Orn]NRIIFDSV-NH2 | significant mammalian vasoconstrictive activity

Reference: US20030032587A1, “Urocortin peptides” (The Salk Institute for Biological Studies, priority 1995, published 2003)
